Data taken from patent US20240343762A1, “USE OF PROTON PUMP MODULATOR IN PREPARING REAGENT” (SHANGHAI QUIETD BIOTECHNOLOGY CO. LTD., priority 2021, published 2024).

Columns and labels:
[1] = molecular target: T1, murine ATP6V1B2 1-286aa truncated sequence (Mus musculus, UniProt P62814); test: Co-immunoprecipitation of EGFP-tagged QD202 with Myc-tagged ATP6V1B2 1-286aa truncated sequence in 293 cells; type: binding; settings: Myc antibody, immunoblotting
T1 construct: expressed in transfected cells; host or cells: 293 cells
T1 sequence (P62814 1-286): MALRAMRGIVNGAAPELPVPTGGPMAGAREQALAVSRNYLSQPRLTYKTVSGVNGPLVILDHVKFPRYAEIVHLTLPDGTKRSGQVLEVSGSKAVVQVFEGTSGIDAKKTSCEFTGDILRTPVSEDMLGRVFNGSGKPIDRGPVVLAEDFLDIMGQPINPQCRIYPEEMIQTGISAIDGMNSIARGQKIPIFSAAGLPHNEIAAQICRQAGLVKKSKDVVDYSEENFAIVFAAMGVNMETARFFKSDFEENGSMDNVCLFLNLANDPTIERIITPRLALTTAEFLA
Description: Expression plasmids including murine ATP6V1B2 full-length sequence, 1-286aa truncated sequence or 1-172aa truncated sequence with a Myc tag are respectively constructed; the amino acid sequence of the murine ATP6V1B2 full-length sequence was as set forth in SEQ ID NO. 8, the amino acid sequence of the murine ATP6V1B21-286aa was as set forth in SEQ ID NO. 10; the amino acid sequence of the murine ATP6V1B21-172aa as set forth in as SEQ ID NO. 11; and these plasmids were respectively called as an ATP6V1B2 full-length expression plasmid, an ATP6V1B21-286aa expression plasmid and an ATP6V1B21-172aa expression plasmid. Meanwhile, a QD202 expression plasmid with an EGFP tag was constructed. […]
Then a Protein G agarose bead was added to be bound to the Myc antibody, so as to precipitate the ATP6V1B2 full-length protein, the 1-286aa truncated sequence or the 1-172aa truncated sequence, and proteins which were bound to one another, and finally the proteins subjected to co-immunoprecipitation was detected by virtue of an immunoblotting method.

SH-SY5Y cells = test: Rotenone cell model (PD) with immunoblotting of α-synuclein oligomer; type: cell-based; settings: 5 μM rotenone, QD202 at 0.1 μM, 0.2 μM, 0.5 μM and 1 μM, 24 hours
Experimental: The rotenone cell model is a commonly used Parkinson's disease (PD) in vitro cell model.
SH-SY5Y cells are cultured in complete medium composed of high-glucose DMEM and 10% fetal bovine serum, placed in an incubator maintained at 37° C. and 5% carbon dioxide for culture. On the day before the rotenone model is established, cells are passaged from 60 mm dishes to 6-well plates, and QD202 treatment experiments are conducted 24 hours after cell passage.
After 24 hours of SH-SY5Y culture, the rotenone model is established. A mixed solution containing 5 μM rotenone and various concentrations of QD202 (0, 0.1 μM, 0.2 μM, 0.5 μM, 1 μM, 5 μM, 10 μM) is prepared with complete medium. SH-SY5Y cells are removed from the culture medium, the mixed solution is added and mixed well, and incubated in the incubator for 24 hours.
After 24 hours of QD202 treatment, the cells are placed on ice, and 200 μL of cell lysis buffer containing protease inhibitors (25 mM Tris-HCL, 150 mM NaCl, 1 mM EDTA, 1% NP40, 5% Glycerol) is added. The cells are collected into the lysis buffer and the collected samples are rotated and lysed at 4° C. for 30 minutes.
The samples are centrifuged at 4° C. for 10 minutes, and the supernatant is collected. 180 μL of the supernatant is retained and 60 μL of 4×loading buffer is added. […]

Question: For “QD202: polypeptide synthesized according to the amino acid sequence as set forth in SEQ ID NO. 1 (YGRKKRRQRRRSPVDVVCS; QD202)”, which “binding to ATP6V1B2 1-286aa truncated sequence by co-immunoprecipitation” value [1] is on record?
Answer: only the full-length ATP6V1B2 protein can be combined

Question: And the “increase in α-synuclein oligomer caused by rotenone treatment” value (SH-SY5Y cells)?
Answer: dose-dependently reduce
